# Reference: FireProtDB (doi:10.1016/0022-2836(91)90566-o)
# B1: DNA-Binding protein G5P wild type, P69542 (protein)
# chain: MIKVEIKPSQAQFTTRSGVSRQGKPYSLNEQLCYVDLGNEYPVLVKITLDEGQPAYAPGLYTVHLSSFKVGQFGSLMIDRLRLVPAK
# Details: Enterobacteria phage fd; pH 7; 25 °C; GdnHCl; CD; MOPS 50 mM; NaCl 100 mM; reversible: yes; whole UniProt chain shown
protein,measurement,value
B1,denaturant m value,3.6 kcal/mol/M
same,denaturant midpoint (higher = more stable),2.61 M
same,unfolding free energy,9 kcal/mol
